{
  "source": "patent US20090239765A1",
  "about": "“GENES WHOSE EXPRESSION IS INCREASED IN RESPONSE TO STIMULATION BY CORTICOTROPIN-RELEASING HORMONE” (priority 2003, published 2009)",
  "key": {"CRH-R1 [1]": {"target": "T1, CRH-R1 (Mus musculus, UniProt P35347)", "T1 construct": "host or cells: AtT-20 (murine pituitary corticotroph adenoma cells)", "T1 sequence (P35347 24-415)": "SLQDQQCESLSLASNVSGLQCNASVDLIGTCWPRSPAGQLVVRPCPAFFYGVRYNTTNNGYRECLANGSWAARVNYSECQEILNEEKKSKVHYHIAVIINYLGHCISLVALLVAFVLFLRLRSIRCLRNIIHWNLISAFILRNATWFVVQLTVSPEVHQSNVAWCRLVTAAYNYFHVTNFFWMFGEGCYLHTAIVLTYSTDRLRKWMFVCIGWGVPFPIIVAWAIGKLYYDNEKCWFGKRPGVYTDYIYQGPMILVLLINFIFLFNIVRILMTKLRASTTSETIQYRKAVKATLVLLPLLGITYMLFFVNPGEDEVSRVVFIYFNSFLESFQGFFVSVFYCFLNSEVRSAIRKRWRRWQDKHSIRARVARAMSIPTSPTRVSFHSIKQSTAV", "assay": "Microarray transcriptional response to CRH in AtT-20 cells (Murine Genome U74Av2 arrays)", "assay_type": "cell-based", "procedure": "(§1) Cell culture and sample preparation—AtT-20 cells were purchased from ATCC and were maintained at 37° C. in 5% CO2 in humidified air in Dulbecco's modified Eagle's medium (Invitrogen Life Technologies) containing 10% fetal bovine serum, 50% horse serum and 4.5 g/L D-glucose. For experiments cells were seeded in 25 cm^2 flasks. The medium was replaced 48 h later and cells were treated with either 0.1% DMSO, 1 μM CRH (Sigma) in DMSO, 1 μM R121919 in DMSO or 1 μM CRH+1 μM R121919 in DMSO for 0, 0.5, 1, 2, 4, 8 and 24 h in fresh medium. The incubation was stopped by aspirating the incubation medium and adding 3 ml Trizol (Invitrogen Life Technologies) for lysis of the cells. Total RNA was extracted using Trizol according to the instructions of the manufacturer. 100 μg total RNA was further purificied using Rneasy kit (Qiagen) with DNAseI treatment on column.\nMicroarray hybridization—cRNA was prepared as follows. Reverse transcription was performed on 10 μg of total RNA for 1 h at 42° C. using a T7-oligo(dT)24-primer and SuperscriptII RT (Invitrogen Life Technologies). Second strand cDNA synthesis was done for 2 h at 16° C. using Escherichia coli DNA Polymerase I, DNA ligase and RNAseH (Invitrogen Life Technologies). After phenol-chloroform extraction using phase-lock gel (Eppendorf) in vitro transcription was performed for 6 h at 37° C. using the Bioarray high-yield RNA transcript labeling kit with Biotin labeled ribonucleotides (Enzo Diagnostics). cRNA samples were purified on Qiagen Rneasy columns followed by fragmentation for 35 min at 95° C. cRNA yields were between 50 and 100 μg. Samples were processed on GeneChips (Affymetrix, Santa Clara, Calif.). In order to check the quality of each sample, 5 μg of labeled cRNA was run on Test2-arrays. Actual experiments were performed on Murine Genome U74Av2 arrays, containing probe sets interrogating approximately 12,000 full-length mouse genes and EST clusters from the UniGene database (Build 74). Hybridization was performed using 15 μg CRNA for 16 h at 45° C. under continuous rotation. Arrays were stained in Affymetrix Fluidics stations using Streptavidin/Phycoerythrin (SAPE) followed by staining with anti-streptavidin antibody and a second SAPE staining. Subsequently arrays were scanned with a HP-Laserscanner and data were analyzed with the Microarray Suite Software (Affymetrix). No scaling or normalization was performed at this stage. Quality of the experiment was assessed based on the percentages present calls across all samples which was on average 47.06±2.45%. The cytoplasmic β-actin and GAPDH 5′/3′ ratios were 1.10±0.08 and 0.93±0.05 respectively.\nBasically this alignment sets the average intensity of one array to the average measured across all arrays, compensating for array to array variations in hybridization, washing and staining, ultimately allowing a reasonable comparison between arrays. After alignment polished data were analyzed using weighted spectral mapping. Weighted spectral mapping is an unsupervised multivariate analysis method which includes double-centering of the data combined with a specialized visualization representing the two highest principle components. Even though double-centering removes the “size” component of the array data, this information is reintroduced in the visualization via the area of the symbols representing the size of the respective samples and genes. This method allows the reduction of a large microarray dataset and provides means to visually inspect and thereby identify clusters of genes and/or subjects in the data (7). A more detailed analysis was carried out using the OmniViz program. All records which were absent in all experiments were removed and all signals less than 20 were set to 20. Gene expression fold differences for CRH, R121919 and CRH+R121919 treatments were calculated at each timepoint. For those calculations signals at corresponding timepoints in DMSO treated samples were used to calculate ratios. […]"}, "CRH-R1 [2]": {"target": "T1, CRH-R1", "assay": "c-fos mRNA levels by quantitative RT-PCR in AtT-20 cells", "assay_type": "cell-based, murine", "procedure": "as §1, with “100 μg total RNA was further purificied using Rneasy kit (Qiagen) with DNAseI treatment on column.” left out\nQuantitative RT-PCR—Microarray data were confirmed using real time PCR analysis. […] Quantitative PCR was performed on a ABIPrism 7700 cycler (Applied Biosystems) using a Taqman PCR kit. […] A linear regression line calculated from the standard curves allowed the determination of transcript levels in RNA samples from the different time points.\nTranscriptional response to CRH was studied in the CRH-R1-expressing murine AtT-pituitary corticotroph-derived adenoma cell line. Whereas CRH-R1 was readily detectable both by real time quantitative RT-PCR (RTq) and western blot, CRH-R2 expression could not be discerned in AtT-20 cells. […]"}, "CRF1 mRNA": {"system": "CRF1 mRNA", "assay": "CRF1 mRNA in AtT-20 cells exposed to CRF", "assay_type": "cell-based, murine", "conditions": "AtT-20 cells exposed to 1 μM CRF", "procedure": "as §1\nQuantitative RT-PCR—Microarray data were confirmed using real time PCR analysis. First strand cDNA synthesis was performed on 0.5 μg total RNA using random hexamer primers and SuperscriptII RT (Invitrogen Life Technologies). Quantitative PCR was performed on a ABIPrism 7700 cycler (Applied Biosystems) using a Taqman PCR kit. […] A linear regression line calculated from the standard curves allowed the determination of transcript levels in RNA samples from the different time points."}, "[3]": {"target": "corticotropin-releasing hormone receptor 1 (CRH-R1), endogenous on murine AtT-20 cells (murine) (UniProt P35347)", "assay": "cell-based or functional assay"}},
  "data": [
    {"compound": "CCCN(CCC)c1cc(C)nc2c(-c3cnc(N(C)C)cc3C)c(C)nn12", "note": "[R121919]", "values": [
      {"measurement": "suppression of CRH-induced transcriptional responses (microarray)", "setting": "CRH-R1 [1]; 1 μM CRH + 1 μM R121919", "value": "suppressed"},
      {"measurement": "suppression of CRH-elicited c-fos transcription", "setting": "CRH-R1 [2]; 1 μM CRH in the presence of 1 μM R121919", "value": "almost completely suppressed"}
    ]},
    {"compound": "CRH: Corticotropin releasing hormone, a 41-amino acid polypeptide (Sigma)", "values": [
      {"measurement": "alterations in CRF1 mRNA", "setting": "CRF1 mRNA", "value": "not detect any alterations"},
      {"measurement": "number of regulated genes (greater than 2-fold change in transcript levels at any one time point, relative to DMSO, differing from antagonist treatment)", "setting": "CRH-R1 [1]; 1 μM CRH, 0.5 to 24 h", "value": 111, "unit": "genes"},
      {"measurement": "number of intermediate responders (responding after 1 to 2 hours of treatment)", "setting": "CRH-R1 [1]; 1 μM CRH, 1 to 2 hours", "value": 32, "unit": "genes"},
      {"measurement": "number of early responders (2-fold change after 30 minutes treatment)", "setting": "CRH-R1 [1]; 1 μM CRH, 30 minutes", "value": 26, "unit": "genes"},
      {"measurement": "number of late responders (response after 2 hours or more)", "setting": "CRH-R1 [1]; 1 μM CRH, 2 hours or more", "value": 53, "unit": "genes"},
      {"measurement": "direction of regulation of all responder genes", "setting": "CRH-R1 [1]; after exposure to CRH", "value": "up regulated"},
      {"measurement": "c-fos transcription (c-fos mRNA levels by RTq)", "setting": "CRH-R1 [2]; 1 μM CRH, levels already going down after 0.5 to 1 h", "value": "transient surge"}
    ]},
    {"compound": "corticotropin-releasing hormone (CRH) (ligand)", "values": [
      {"measurement": "microarray gene expression in AtT-20 cells (greater than 2-fold change in transcript levels against DMSO)", "setting": "[3]", "value": 111, "unit": "genes"}
    ]}
  ]
}
